Laboratory results published in the supplement of paper PMC9170038.

Test system: MS2 coat protein
Assay: apparent KD of MS2 coat protein; designed switch direction (-1 OFF switch, 1 ON switch): 1; higher = weaker reporter binding
How it was run: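 Designed RNA switches sharing common flanks were transcribed on Illumina chips by stalled E. coli RNA polymerase. They were titrated with SNAP-549-labelled MS2 coat protein, from 0.7 or 1.5 nM doubling to 3 µM, in Tris-HCl pH 7.5 buffer with KCl, MgCl2, BSA, DTT, tRNA and Tween-20. Titrations ran without input, with 200 uM small-molecule ligand, or with an oligonucleotide input. The apparent KD of each design is the median over its clusters, after curve-fitting of normalised cluster fluorescence.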

[1] = input ligand: microRNA oligo, concentration not stated
[2] = Eterna round: R95, input ligand: FMN 200 uM
[3] = Eterna round: R95, input ligand: microRNA oligo, concentration not stated
[4] = Eterna round: R95, input ligand: none

Sequence	apparent KD of MS2 coat protein (input ligand: FMN 200 uM) [nM]	apparent KD of MS2 coat protein [1] [nM]	apparent KD of MS2 coat protein (input ligand: none) [nM]	apparent KD of MS2 coat protein [2] [nM]	apparent KD of MS2 coat protein [3] [nM]	apparent KD of MS2 coat protein [4] [nM]
GCUAGAAUUAAAGCCAACAUGAGGAUCACCCAUGUAUGUUGGCAGGAUAUCGUUUGCAAAGCAAACGAGAAGGGCUAAACUAGC [Mat - Same State NG 3 - JL Mod - D4] (Eterna round: R96, puzzle: Same State NG 3)	197	100	244			
CCAACAUACAAUUUAAGAUCACAUGAGGAUCACCCAUGUAUGCAGGAUAUCAGCUCGUUUAGAGCUGAGAAGGGCAAUUUAAUU [SSNG3/1-A3] (Eterna round: R96, puzzle: Same State NG 3)	99	158	202			
UUAAUUUAUUGAGGAUAUUAUGUCGACUGAGUUGACAUGAGGAUCACCCAUGUGAGAAGUGGUAUUAAGAAGGCAAUAUUCAUA [JR_SSNG2_Sub087] (Eterna round: R96, puzzle: Same State NG 2)	39.8	118	115			
GUAGCAUACCGAGGAUAUUCAUAUUAACAUGAGGAUCACCCAUGUUUAGGUCGAUUACGACCUUGGGAGAAGGCGGAAUGCUAC [Xeonanis - 20 Mod33] (Eterna round: R96, puzzle: Same State NG 2)	12.3	15.4	25.5			
GGUGCAAUUAACGCCUACAUGAGGAUCACCCAUGUAUGUAGGCAGGAUAUCGUUUGCUUUGCAAACGAGAAGGGCUAUAGUACC [JL SSNG3 1.15] (Eterna round: R96, puzzle: Same State NG 3)	54.4	130	157			
AUCAAAACAAGUUGCAGUGUUCGUCUUUCACAUGAGGAUCACCCAUGUAAUAGCCCAGUGGAAGCGCUCAGGCCACC [Usbi] (puzzle: Sensor for hsa-mir-208a)				225	57.7	210
GCGUUUAACGUAGGAUAUCGACCUACAUGAGGAUCACCCAUGUCUUUGUAUAGUUUUUUUUGUUACGAGAAGGACGUUUUGCAU [JR_SSNG2_Sub070] (Eterna round: R96, puzzle: Same State NG 2)	75.1	95.2	122			
CCGCUCCGUGGAGGAUAUGGGCCUGCCCGGGAUAACGGGCCUAACACAUGAGGAUCACCCAUGUCCCAGAAGGCCGCUGGAGCC [Atxerexebe] (Eterna round: R96, puzzle: Same State NG 2)	24.8	40	113			
GGAGCCGGUACUGAGGAUAUUCAUUUUAAAACAUGAGGAUCACCCAUGUAGGCCAGAAGGCCUUGGGAGAAGGCAGAUCGGCUCC [Biseusra - 6] (puzzle: Same State 2)				19	180	281
UGACACACGGCAGGAUAUCGAUUGCAAAGCAAUCGAGAAGGGCCUCAUGUCGUGGAAACGUGACAUGAGGAUCACCCAUGUUGC [Omei SS(NG)1 Cv14] (Eterna round: R96, puzzle: Same State NG 1)	178	19.6	32.9			
GUAGUACAUGAGGAUCACCCAUGUUUCCUCCAAGAGUUCUUCGAGGAUAUGUCAUGGAAUCCACAAUAGAAGGCGGAGAACCAA [Eternabot solution 39] (Eterna round: R96, puzzle: Same State NG 3)	403	526	462			
AAAGCCCGUGCUAAGGAUAUGCGUACUCCUACAUGAGGAUCACCCAUGUCCCGCCGAAAAGGAAGGCAGAAGGUAGCACGGGCAA [Letiso] (puzzle: Same State 2)				48.3	114	126
AGUCCAGCAUGAGCUGGACAAAAGCAUGUACAUGAGGAUCACCCAUGUUCAUGUACAAGCUUUUUGCAAGUCAAAAU [Mat - hsa-mir-208a - Mod of JL - 81] (puzzle: Sensor for hsa-mir-208a)				614	17.8	595
AUUAAUAAUCGAGGAUAUCACGUCGAUUAGACGUGAGAAGGCGAUCAUAACAUGAGGAUCACCCAUGUAUUACAUGAAGUUAAU [SSNG1/4-B2] (Eterna round: R96, puzzle: Same State NG 1)	25.3	23.7	28.2			
GCUACCAUUGAUGCCUACAUGAGGAUCACCCAUGUAUGUAGGCAGGAUAUCGAUUGCUUUGCGAUCGAGAAGGGCUUAGGUAGC [JL SSNG3 1.31] (Eterna round: R96, puzzle: Same State NG 3)	52.4	139	183			
UGUUAACAUGAGGAUCACCCAUGUCAAAUGAAUCGAGGAUAUGGGAAGGAAGAAGAGAAACUAGAAGGCGAAGUUG [Altered State 1-4 - Jieux - Same State 1] (puzzle: Same State 1)				835	56.8	216
UCUUGGUUUUUGCUCGUUUUUUGUGUUGAACAUGAGGAUCACCCAUGUAUUGUACGGUCCAAUUUAGUAGUGGUCCG [JMF 25] (puzzle: Sensor for hsa-mir-208a)				26.6	15.3	26.2
UGGUACAUGGGAGGAUAUGGAGUGAUGACAUGAGGAUCACCCAUGUUAUAAAUGCCGAGAGGCAACUAGAAGGCCCAUGUACCU [JL SSNG1 3.95] (Eterna round: R96, puzzle: Same State NG 2)	23.2	149	149			
AGUCCAGCCUGAGCUGGACAAGAGCAUGUACAUGAGGAUCACCCAUGUCAUGUACAAGCUUUUUGCUCGUCUUAAAA [Zipper 46 - 2] (puzzle: Sensor for hsa-mir-208a)				493	14.3	478
UAUUUAAUCAUAGGAUAUAGUGUGAAAUUUGGACUAGAAGGAUGUAACAUGAGGAUCACCCAUGUGGUAAGUGGGACACAUUGA [JR_SSNG1_Sub097] (Eterna round: R96, puzzle: Same State NG 1)		86.7				
CGUCCAGCCUGAGCUGGACAAAAGCAUGUACAUGAGGAUCACCCAUGUUCAUGUACAAGCUUUUUGCUCGUCUUAUU [salish99_208a_r3_050] (puzzle: Sensor for hsa-mir-208a)				681	16.1	739
